Laboratory results: US20170106084A1

T1: human tau(pS422) fragment SEQ ID NO: 03 (human)
T1 sequence (peptide, phosphoserine at 422 (tau numbering); biotinylated): SIDMVDXPQLATLAD


Target: T1, human tau(pS422) fragment SEQ ID NO: 03 (human)
Experiment: ELISA, coated antigen

EC50 | Binder
6.3 ng/mL | VH00/VL00 (antibody, V domains shown) VH: QSVEESGGRLVTPGTPLTLTCTVSGFSLSSNAINWVRQAPGKGLEWIGYIAVSGNTYYASWAKGRFTISKASTTVDLKMTSPTAEDTGTYFCGKSNIWGPGTLVTVSL VL: AQVLTQTTSPVSAAVGSTVTISCQSSQSVRTNKLAWFQQKPGQPPKRLIYSASTLDFGVPSRFSASGSGTQFTLTISDVQCDDAATYYCLGYFDCSIADCVAFGGGTEVVVK
5.6 ng/mL | VH32/VL22 (antibody, V domains shown) VH: EVQVLESGGGLVQPGGSLRLSCAVSGFSLSSNAINWVRQAPGKGLEWVGYIAVSGNTYYASWAKGRFTISRDNSKNTVYLQMNSLRAEDTAVYYCGKSNIWGQGTLVTVSS VL: AQVMTQSPSSLSASVGDRVTITCRSSQSVRTNRLAWFQQKPGQPPKRLIYSASTLDYGVPSRFSGSGSGTEFTLTISSLQPEDFATYYCLGYFDSSADIVAFGGGTKVEIK
